Test results as given in a protein production outcome set (Wang et al. 2014).

Assay: label from the status in PepcDB records
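Further: failed if final PepcDB status was selected cloned or expressed and not failed if soluble or beyond.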

| Sequence | protein production |
| --- | --- |
| MEFNQFGQPIGHAIQQPIPGKFKAQSLIGNDVNLVLIEQDRVALKNVEQLWDCIKTEPDERCWTYLPYEAPETFRQLEYNLKRNFGFEPSFHYWIMVEGQAVGWIALMNLREQHAAVEIGNVYFSHRLKQTAAATEVIYLLLNHCFEQGLRRIEWKCDDLNGPSKRAALRFGFVYEGLFRQDRVSKGRNRDTTWFSIIDSEWASLKTAYLQWLNPDNFNHAGKQKKRLEDFIVT | failed |
| MEFQLWGAKIVIEPKPDLRYLYLEITNRCNLKCEMCFKQYWEDKEGDMDWDLFLKILDDAKEFPELKMIYFGGIGEPSVHPRFMDMVREVKRRGFRLGMSTNGVLLEDKILEEFVKLGVDVVYFSMDAIPTPSNIVTLGHITSKVVESRIKKLVELKKRYKTEKPTIGVEVVATKENYKQLPEMAIYLRNLGVDSMLISNLIPMTKEHSKAIVYDGSVDMTPIVNELHQIAEGGPFMRIAEFKLRTNRYCDFIENNVTVVRWDGEVFPCYRFLHTYPEVIFGREKKVIAHSFGNVKEKSLKDIWMSEEYVRFRFLVKASAYPSCIDCPLNTSCSFALDTTQDCWGTSPSCGDCLWSRGIVLCPIPFEYMGKFL | failed |
| MEFQSTVVATVDCQKQVRSWRLLRSFIQLLIPTCNCTLVQELEQDNTNLRGKKLYNDIKSRTSSFRSSSSLSSSTVTGTIFGYRKGKINFCIQTPRKSTNLDLLLELAVPTTVLAREMREGALRIVLERNNEKQDDDSFLSKPFWNMYCNGKRVGYARKRSPSQDDMTALTALSKVVVGAGVVTGKELGRFDDELMYLRASFRRVNGSKESESFHLIDPAGNIGQELSIFIVPSSV | failed |
| MEFSLIADTVTVCTAKQGIAFGKSLLQRLDLANHISFADSVVDHQSPGGGIVQASAIIFPVDAIAPPPVRSSSYKTIRRIRKKRRTRRVSFGGDGDDAGDFGRFLLEGDFGGSDGPFGFGGGGNDGGGKGWNYGGGGGGFGRDNWDGSSFSSWSDPAMEFVYEVICWIALSNCVHFAFKRIVRIVTDGEREKLNIALSPVC | failed |
| MEGLESVYAQAMYGMTRESKIMEHQGSDLIWGGNELMARELCSSSSYHHQLINPNLSSCFMSDLGVLGEIQQQQHVGNRASSIDPSSLDCLLSATSNSNNTSTEDDEGISVLFSDCQTLWSFGGVSSAESENREITTETTTTIKPKPLKRNRGGDGGTTETTTTTTKPKSLKRNRGDETGSHFSLVHPQDDSEKGGFKLIYDENQSKSKKPRTEKERGGSSNISFQHSTCLSDNVEPDAEAIAQMKEMIYRAAAFRPVNFGLEIVEKPKRKNVKISTDPQTVAARQRRERISEKIRVLQTLVPGGTKMDTASMLDEAANYLKFLRAQVKALENLRPKLDQTNLSFSSAPTSFPLFHPSFLPLQNPNQIHHPEC | failed |
| MEHIEIRVSATGSMSSFHALCSFHQWPINVACSCWLSHCYRIYSLYPPQLVSCSDRLSTSGNTNAGAEFVTE | failed |
| MEHSNLRKKHNYKFTISTLTLSCLMAFNAQAAVDCSPLEAWDAGKVYNGGEEVKQGTNAYKAKYWTQNNDPATAGEWGAWQDLGVCSGEVPNEAPTVDLTSPSATEQLTTGDLVTLTASAADSDGNIVRVDFSVDGVVISSVTASPYSTTWTALEGNHTISAQSYDDKGAQSTVSSVAINVTNTPTDNIAPTATLSLSATNVELGSVVTLTADAVDSDGTIDKVDFYIDNTLVGTAATAPYTLQYTTTAVGSLSVYAKATDNLGATANSASTNLTVTSSLPVADNCRPDGLYQTEGVTVPYCTIYDKEGREKMGADHPRRVIGYFTSWRDGGDEQNSYLVKDIPWEQLTHINYAFVSIGSDGKVNVGDVTDPNNAATGKEWAGVEIDPALGFKGHFGALATAKAKHGVKTLISIGGWAETGGHFGADGNRVADGGFYTMTTNADGSINHAAIEKFAVSAVEMMRKYKFDGLDIDYEYPTSMAGAGNPDDKEFMEPRRQYLWASYQVLMKTLREKLDVASAQDDIHYMLTIAAPSSGYLLRGMETFDVTQYLDYVNIMSYDLHGAWNDHVGHNAALYDTGKDSELAQWNVYGTEAYGGIGYLNTDWAYHYFRGSMPAGRINIGVPYYTRGWQGVTGGENGLWGRAPLPDQAKCEPGTGEGEKNNCGYGALGIDNMWHDKNSYGQEMGAGSNPMWHAKNLQEGIFGSYANIYGLDPANDPADQLVGTYTRHYDSVAVAPWLWNAEKKVFLSTEDKDSINVKADYVIDQEIGGIMFWELAGDYSCYVLDSNGNRTSVDATEAACQTGNGEYHMGNTMTKAIYEKFKSATPYGNTVATGAIPTETVDIAVNVGGFKVGDQNYPINPKVTFTNNTGQDIPGGTEFQFDIPVSAPDNAKDQSGGGLQVIASGHTRPNNIGGLDGTMHRVAFTLPAWKALPAGGVYELDMVYYLPISGPANYTVNINNVDYAFKFEQPDLPLADLSSGGNNGGNGGTPDAGCDATGLVTYPDLPQKDWAGNPSHANTGDQVVHNNVIYQANWWTAAEPGSDGSWTKVCNL | failed |
| MEIEQQQPLPSERGLSPVARRALIGAITGCFVLGGVLMLLPPAGREPAAPPAPAAGPMAGPVAQAKAAVGAGVPVALPALAALVTDHETHLRAHPRDARSWAVLGAAYVAQGKGTADAAYFPKAEEALRTSLNVAPRRNAEALGALAALANARGDYREAKQWGEAAVKMAPKQWPAYAQLIDAYDGLGDYKATGKTLDKLLGLRAGPAAAARAAQVYRARGWREDAAAAIADATARAGSPAEQAVYWQQAGELAWERGEPEQALRYFETALRTDPDRHAALAGQGRALAALGRTSDAVNAYRAALAKQPLAAYAVELGELYESQGLGGAAQVQYYLVRERVRQDAAGGVNNRLVVGQFEADHGDAEVAVRELREEWKRQPSIRVADALGWALHRAGQDQEALGFATKAMDKEHGGGVRSALYAYHRGEIERALDQLAPARRHLAEALRINPHFSPWFAPMAKETLAELGEPPAEGLPGDEEVEAAEAEAAEAAEAAQTPEAAESVDPAQTEQVPPPGASTPVPQEPEAR | failed |
| MEIEVKFRVNFEDIKRKIEGLGAKFFGIEEQEDVYFELPSPKLLRVRKINNTGKSYITYKEILDKRNEEFYELEFEVQDPEGAIELFKRLGFKVQGVVKKRRWIYKLNNVTFELNRVEKAGDFLDIEVITSNPEEGKKIIWDVARRLGLKEEDVEPKLYIELING | not failed |
| MEIFEDVVRCGGFRAAALGRGVSSSAISQSISVLEEALGIRLLNRTTRSVAPTEAGEQLLERLRPALYEIRTAVDDLNQLRERPSGTVRINAPGPAADHVLCPLTFEFMKIYPDVNVEIVSDAAIIDIVEQGFDAGVRFGNQLAQDMIAMPLGPALRYAIVASPDYLRKRGRPHSPRDLLQHDCIRRRFPGGTMVTWKFARDGDEVEITPKGRLTLSSAHQELQAALAGSGIAHLFEDYVRDDVEQGRLVELLCDWKQKLPSWYLYYPSRRHTSAAMRAFLEYIRNQRQHPDRR | failed |
| MEIFELILLMLSAVFLSNVLSRFLPSIAVPLIQVLLGIILAIPLGDHTMDINPELFLLLFMAPILFNDGARTDKKSLWKNRKAILSLSIGLVFVTVGVLGAFIHYLIPAIPFAAAFALAAALAPTDAVAVGALAEKVRVPHKIMHILEGESLINDASGLVSFQFAVLALVTGTFSFMSAGTSFLLLSLGGIALGVVLSLLKIMLMRGLRQLGIENMTSFMLMEILLPFLIFMVAENIGVNGILAVVSGGMVHSFSYKRINPEMAQLNLLSKNTWSVIIFSLNGLVFVLLGTQLPQIMTAIWEDTGIHKSMLFLYIFGITFLLLALRFLWILFFRNYEENPHADLVSRLKNTFLYTVAGVRGTITLVSALSLPFVLGQGNAFPERDLLIFIAAGVIITTLLLANFTLPLFAAKKDVVVADHTTAIALLRDVVGQLQRYKTDENEVEMNNVLKMYNGRIFSLMEHKEVSATEKELRRLTQEWQLENTRRLVFERKIDTGVGLSLMMRLGKRLYVQTRAQKYRARMRYRQLLSHSIRDFRIVPLSFEERRKERAKLQTENNQFVVQKLNELDKNEFNPEVISLYLMNFERALGSGKHKKETDNEELQTTIDLASQIERETIQHYFEKGTITRKEMKVYRDNLLAIEASFQLEF | failed |
| MEIFILIGLIVLNGLFAMSEIAIVTARKSRLTALAHAGSSTAKAALKLAEDPTQFLSTVQIGITSIGILNGIFGESILAEPLSLWLQTFGLSPDVTNIFSTVLVVIIVTYVSIVIGELVPKRIGQVSAESIACIMAKPMVFLAIATKPFVWMLSGSTHALMRLMGFSHRLDDNVTQEDIQAMLQEGSSAGVIEHNEHAMVKNVFRLDERTISSLMVPRSDIVFLDLNLPLDANLRTVMQSPHSRFPVCRNNVDDMVGIISAKQLLSESIAGERLELVDLVKNCNFVPNSLSGMELLEHFRTTGSQMVFVVDEYGDLKGLVTLQDMMDALTGEFFQEDVNDQMVIKREDGSLLLDGLIPIFDLKDALGIKQLPNEEDGRYQTLNGFLMYELGKIPQTTDIVEVAGWRLEIMDMDGKRVDKVLAQKLPDAEDSEESIFVDL | failed |
| MEIGIIGTGNIGGTLARKLIAAGHQVRVANSKGIHGVQSFADEIGATAVDVYGAVKGADAIILSIPLPALASLPNGFFDDLPETVPLIDTSNYYPGLRDPLIPEIDDGMTESVWVSQQLSHPVIKAFNNILAWSLAELGTPKGSASRLAIAVAGDNATLKQIVMNLVDDTGFDAIDAGSLEESWRQQPSTPAYCCDYDAETMKKGLTAAVRGEAASKRDRLPELFGKLGANPTHEDIVAMNRSLNPLEHHHHHH | not failed |
| MEIGVVGKPNVGKSTFFSAATLVDVEIANYPFTTIEANVGVTYAITDHPCKELGCSPNPQNYEYRNGLALIPVKMVDVAGLVPGAHEGRGLGNKFLDDLRMASALIHVVDATGKTDPEGQPTDYHDPVEDIEFLEREIDYWIYGILSKGWDKFAKRIKLQKIKLESAIAEHLSGIGVNENDVWEAMHKLNLPEDPTKWSQDDLLAFASEIRRVNKPMVIAANKADAASDEQIKRLVREEEKRGYIVIPTSAAAELTLRKAAKAGFIEYIPGASEFKVLRDMSEKQKRALMVIKEKVLDRFGSTGVQEVINRVVFDLLKLIPVYPVHDENKLTDQFGNVLPHVFLMKKGSTPRDLAFKVHTDLGKGFLYAINARTKRRVGEDYELQFNDIVKIVSVTR | not failed |
| MEIKPVSPEIVSDKLTKVILVFYKTISEIIYPLAILGYCISVILIITGSCFHSRTVMKMGIVNFCVITLVLISYFFMPSFIGILKSIETILR | failed |
| MEIKRILVSRTDKIGDLVLSIPSFFMLKKMYPNAELVVIVRKYNVDIVKNLPYIDRIVIIDEYSKAELLEKIAYFKADVFIALYNDSYIASLARASKAKIKIGPISKLSSFFTYNKGVLQKRSLSLKNEGQYNLDLVTKLDRKRFAILEHHHHHH | failed |
| MEILHFSPSSSISTIIHRPRRKIMALRDSIKTQMNLITTESVSSFRFCPCGRRHFIGAAMTSMPFLPISPSHASTSTEDLKRLRPPKPDWYEEFFAWSMNSEVESYEKEVSDYKMKLFDNLVGKAEKVLEIGIGTGPNFKYYTDIPNVSVIGIDPNAKMESYARKSATEAGLKPEEFTFVHALGESIPLEDASVDAVVGTLVLCSVTDVTQTLKEIKRILRPGGIYIFIEHVAAEDGTFLRLVQTVLDPLQQVVADGCHLTRHTGESILEARFNGGADVKKTSLSRLAYISSHVYGVAYN | failed |
| MEILSLGEKIKARRKELNMTLKDLAGDRITPGQISLVESGKSNPSMDLLEYLAGALNTSVEYLMESEETQAEKICVYYENTAEAYMLNDELMEAEQYLEKAMYYAENYKISYRKARTLYLYGCINMNKNELGVAQQFFLSSNVLFIKLNHYEDIINTFINLGKITLNLKAYNSSCSYFEQAERVSRDNDIGNDFLIGEIYYYMSLVYFKMNNSNKTIKYCLMAKEKFAELENKKEYARTLLILSKEYSKSGDVDNAIKYSKKALKAFKENDNMFAVADIENELGKLFYEFENIEESFIHLNKAKEIRKKTKGHEFIETLCNICENYIKLKDTENSQKVLNEIKENIDGNNVFDILKYYMLKYRISILNRSLKEAENILLRALQYAENMELEKEAAEFSVIIGKYYIDNGDDVEAAKYLNSGIEKFKKIGVLKDL | failed |
